From paper PMC8881100, “Biochemical and Molecular Dynamics Study of a Novel GH 43 α-L-Arabinofuranosidase/β-Xylosidase From Caldicellulosiruptor saccharolyticus DSM8903” (Frontiers in Bioengineering and Biotechnology, 2022)

Substrate: O=[N+]([O-])c1ccc(O[C@@H]2O[C@@H](CO)[C@H](O)[C@H]2O)cc1
Assay: purified protein
Assay type: biochemical, Caldicellulosiruptor saccharolyticus
Settings: citric acid phosphate buffer pH 6, 70°C, 0.5 to 3.5 mM substrate

B1: CAX43 (GH43 α-L-arabinofuranosidase/β-xylosidase) (Caldicellulosiruptor saccharolyticus DSM 8903) (protein)
chain: MIPTLWDPNVDEERYKNPIIHADYSDPDVIRVGSDYFLVASSFNCVPGLPILHSRDLINWKIVNYAVERLPSPEYDTPQIGKGIWAPAIRYHEEKFYIYFSMPDDGIYVCYTDDPFGKWSDIHLVKAAKGWIDPCPFWDEDGNAYLVNAFAKSRIGFNSKLCVSRLSADGLRVLDEGKIVFDGAKTQPTIEGPKLYKRNGYYYIFAPAGGVKFGWQTVLRSKDIYGPYEEKIVLHQGKTKINGPHQGAWVETEKGEHWFVHFQDRGPYGRVVHLQPMRWEDNWPVIGVDIDGDGIGEPVEEYRKPNTNYKNEYDFYLECSDHFDKPQISLQWQWHANPQDNWYSLEKRKSYLRLYAVGNLTNNNKVKSIFFMPNLLLQKIPAPEFIAIVKLEVNFNKEGSYAGIIMSGSRYSSIGIKRGQKKLSLVQVLGDVKEDVIENTVAKMPIETSQVFLKISVKEGAVCKFSFSFDGKKFTDFGTEFIPQEAIWVGSKIGLFCINTSGKNGVIQSDYADFDYFKIENFRKEDEC
notes: C-terminal His6 tag; pEASY blunt E2, E. coli BL21 (C43); Ni-NTA purified
Work on B1 yielded a Km of 1071 µM and a kcat of 234.674 s⁻¹.
